Assay results reported in patent US20250327097A1, “ORGANISMS PRODUCING LESS CROTONIC ACID” (Global Bioenergies, priority 2021, published 2025).

tested on: 3-methylcrotonic acid; type: biochemical, Yersinia frederiksenii; parameters: key: “+” representing a low increase in activity; “++++” representing a high increase in activity

| Molecule | Activity relative to WT |
| --- | --- |
| I283T-N285P-N287T-Q290E-S322T-N388M-K394R-C430A-i430aS-L432F-L434W-S436N-dG462 (protein) MFLKSLREQINLLKRQGDLRIINRPVDSYLEAAAIIRRSTETKAPVPLMTNIKGYPGCSIVGGLAALSSNPEYPLSRVAMSLGLSTTASAQSIVQYLIDGLKKTPYLPVEIDSNSAPCKQNILRGEDASLAHFPIPQVHQHDGNRYVNTWGVFIVESPDGQWCNWSIQRVQYLNDRQMIALVFPSQHISDIWEEWVKIGKPMPYALVQGCEPIVPYIAGLPLLERNVNEAEYIGALYGKGIEVVKCETHDLRVPASSEVVIEGYFAITREGVEGPFGEFAGYTPPETSLEPILSITAISWQDDPIWPVVAEGKPVDEYHTCTGIGDAAAIQNVLLTANLPVSFVWVPLYSACHLMIVSINRHWRQTHPDLTSEQLTKKVGDVIHQTRMSIKLPRIVVLDDDVDPADTESLLWALATRIHPERKRYFYESAIFPWLNCYSEEERHNRKGKRVIIDALLPENHGAISSFDYAYPDDIKQRVLMHWETDFSHD | ++++ |
| I283T-N285P-N287T-Q290E-S322T-N388M-K394R-C430A-i430aR-L432F-L434W-S436N-dG462 (protein) MFLKSLREQINLLKRQGDLRIINRPVDSYLEAAAIIRRSTETKAPVPLMTNIKGYPGCSIVGGLAALSSNPEYPLSRVAMSLGLSTTASAQSIVQYLIDGLKKTPYLPVEIDSNSAPCKQNILRGEDASLAHFPIPQVHQHDGNRYVNTWGVFIVESPDGQWCNWSIQRVQYLNDRQMIALVFPSQHISDIWEEWVKIGKPMPYALVQGCEPIVPYIAGLPLLERNVNEAEYIGALYGKGIEVVKCETHDLRVPASSEVVIEGYFAITREGVEGPFGEFAGYTPPETSLEPILSITAISWQDDPIWPVVAEGKPVDEYHTCTGIGDAAAIQNVLLTANLPVSFVWVPLYSACHLMIVSINRHWRQTHPDLTSEQLTKKVGDVIHQTRMSIKLPRIVVLDDDVDPADTESLLWALATRIHPERKRYFYESAIFPWLNCYSEEERHNRKGKRVIIDALLPENHGAISSFDYAYPDDIKQRVLMHWETDFSHD | ++++ |
| N388M-K394R-S429D-C430N-L432F-L434W-S436N (protein) MFLKSLREQINLLKRQGDLRIINRPVDSYLEAAAIIRRSTETKAPVPLMTNIKGYPGCSIVGGLAALSSNPEYPLSRVAMSLGLSTTASAQSIVQYLIDGLKKTPYLPVEIDSNSAPCKQNILRGEDASLAHFPIPQVHQHDGNRYVNTWGVFIVESPDGQWCNWSIQRVQYLNDRQMIALVFPSQHISDIWEEWVKIGKPMPYALVQGCEPIVPYIAGLPLLERNVNEAEYIGALYGKGIEVVKCETHDLRVPASSEVVIEGYFAITREGVEGPFGEFAGYIPNENSLQPILSITAISWQDDPIWPVVAEGKPVDEYHTCSGIGDAAAIQNVLLTANLPVSFVWVPLYSACHLMIVSINRHWRQTHPDLTSEQLTKKVGDVIHQTRMSIKLPRIVVLDDDVDPADTESLLWALATRIHPERKRYFYEDNIFPWLNCYSEEERHNRKGKRVIIDALLPENHGAISSFDYAYPDDIKQRVLMHWETDFSHD | + |
| I283T-N285P-N287T-Q290E-S322T-N388M-K394R-C430A-i430aL-L432F-L434W-S436N-dG462 (protein) MFLKSLREQINLLKRQGDLRIINRPVDSYLEAAAIIRRSTETKAPVPLMTNIKGYPGCSIVGGLAALSSNPEYPLSRVAMSLGLSTTASAQSIVQYLIDGLKKTPYLPVEIDSNSAPCKQNILRGEDASLAHFPIPQVHQHDGNRYVNTWGVFIVESPDGQWCNWSIQRVQYLNDRQMIALVFPSQHISDIWEEWVKIGKPMPYALVQGCEPIVPYIAGLPLLERNVNEAEYIGALYGKGIEVVKCETHDLRVPASSEVVIEGYFAITREGVEGPFGEFAGYTPPETSLEPILSITAISWQDDPIWPVVAEGKPVDEYHTCTGIGDAAAIQNVLLTANLPVSFVWVPLYSACHLMIVSINRHWRQTHPDLTSEQLTKKVGDVIHQTRMSIKLPRIVVLDDDVDPADTESLLWALATRIHPERKRYFYESAIFPWLNCYSEEERHNRKGKRVIIDALLPENHGAISSFDYAYPDDIKQRVLMHWETDFSHD | ++++ |
| I283T-N285P-N287T-Q290E-S322T-N388M-K394R-C430A-i430aI-L432F-L434W-S436N-dG462 (protein) MFLKSLREQINLLKRQGDLRIINRPVDSYLEAAAIIRRSTETKAPVPLMTNIKGYPGCSIVGGLAALSSNPEYPLSRVAMSLGLSTTASAQSIVQYLIDGLKKTPYLPVEIDSNSAPCKQNILRGEDASLAHFPIPQVHQHDGNRYVNTWGVFIVESPDGQWCNWSIQRVQYLNDRQMIALVFPSQHISDIWEEWVKIGKPMPYALVQGCEPIVPYIAGLPLLERNVNEAEYIGALYGKGIEVVKCETHDLRVPASSEVVIEGYFAITREGVEGPFGEFAGYTPPETSLEPILSITAISWQDDPIWPVVAEGKPVDEYHTCTGIGDAAAIQNVLLTANLPVSFVWVPLYSACHLMIVSINRHWRQTHPDLTSEQLTKKVGDVIHQTRMSIKLPRIVVLDDDVDPADTESLLWALATRIHPERKRYFYESAIFPWLNCYSEEERHNRKGKRVIIDALLPENHGAISSFDYAYPDDIKQRVLMHWETDFSHD | ++++ |
| I283T-N285P-N287T-Q290E-S322T-N388M-K394R-C430A-i430aQ-L432F-L434W-S436N-dG462 (protein) MFLKSLREQINLLKRQGDLRIINRPVDSYLEAAAIIRRSTETKAPVPLMTNIKGYPGCSIVGGLAALSSNPEYPLSRVAMSLGLSTTASAQSIVQYLIDGLKKTPYLPVEIDSNSAPCKQNILRGEDASLAHFPIPQVHQHDGNRYVNTWGVFIVESPDGQWCNWSIQRVQYLNDRQMIALVFPSQHISDIWEEWVKIGKPMPYALVQGCEPIVPYIAGLPLLERNVNEAEYIGALYGKGIEVVKCETHDLRVPASSEVVIEGYFAITREGVEGPFGEFAGYTPPETSLEPILSITAISWQDDPIWPVVAEGKPVDEYHTCTGIGDAAAIQNVLLTANLPVSFVWVPLYSACHLMIVSINRHWRQTHPDLTSEQLTKKVGDVIHQTRMSIKLPRIVVLDDDVDPADTESLLWALATRIHPERKRYFYESAIFPWLNCYSEEERHNRKGKRVIIDALLPENHGAISSFDYAYPDDIKQRVLMHWETDFSHD | ++++ |
| I283T-N285P-N287T-Q290E-S322T-N388M-K394R-C430A-i430aH-L432F-L434W-S436N-dG462 (protein) MFLKSLREQINLLKRQGDLRIINRPVDSYLEAAAIIRRSTETKAPVPLMTNIKGYPGCSIVGGLAALSSNPEYPLSRVAMSLGLSTTASAQSIVQYLIDGLKKTPYLPVEIDSNSAPCKQNILRGEDASLAHFPIPQVHQHDGNRYVNTWGVFIVESPDGQWCNWSIQRVQYLNDRQMIALVFPSQHISDIWEEWVKIGKPMPYALVQGCEPIVPYIAGLPLLERNVNEAEYIGALYGKGIEVVKCETHDLRVPASSEVVIEGYFAITREGVEGPFGEFAGYTPPETSLEPILSITAISWQDDPIWPVVAEGKPVDEYHTCTGIGDAAAIQNVLLTANLPVSFVWVPLYSACHLMIVSINRHWRQTHPDLTSEQLTKKVGDVIHQTRMSIKLPRIVVLDDDVDPADTESLLWALATRIHPERKRYFYESAIFPWLNCYSEEERHNRKGKRVIIDALLPENHGAISSFDYAYPDDIKQRVLMHWETDFSHD | ++++ |
| I283T-N285P-N287T-Q290E-S322T-N388M-K394R-C430A-L432F-L434W-S436N-i438aD-dG462 (protein) MFLKSLREQINLLKRQGDLRIINRPVDSYLEAAAIIRRSTETKAPVPLMTNIKGYPGCSIVGGLAALSSNPEYPLSRVAMSLGLSTTASAQSIVQYLIDGLKKTPYLPVEIDSNSAPCKQNILRGEDASLAHFPIPQVHQHDGNRYVNTWGVFIVESPDGQWCNWSIQRVQYLNDRQMIALVFPSQHISDIWEEWVKIGKPMPYALVQGCEPIVPYIAGLPLLERNVNEAEYIGALYGKGIEVVKCETHDLRVPASSEVVIEGYFAITREGVEGPFGEFAGYTPPETSLEPILSITAISWQDDPIWPVVAEGKPVDEYHTCTGIGDAAAIQNVLLTANLPVSFVWVPLYSACHLMIVSINRHWRQTHPDLTSEQLTKKVGDVIHQTRMSIKLPRIVVLDDDVDPADTESLLWALATRIHPERKRYFYESAIFPWLNCYSEEERHNRKGKRVIIDALLPENHGAISSFDYAYPDDIKQRVLMHWETDFSHD | ++++ |
| I283T-N285P-N287T-Q290E-S322T-N388M-K394R-C430A-L432F-L434W-S436N-i443aR-dG462 (protein) MFLKSLREQINLLKRQGDLRIINRPVDSYLEAAAIIRRSTETKAPVPLMTNIKGYPGCSIVGGLAALSSNPEYPLSRVAMSLGLSTTASAQSIVQYLIDGLKKTPYLPVEIDSNSAPCKQNILRGEDASLAHFPIPQVHQHDGNRYVNTWGVFIVESPDGQWCNWSIQRVQYLNDRQMIALVFPSQHISDIWEEWVKIGKPMPYALVQGCEPIVPYIAGLPLLERNVNEAEYIGALYGKGIEVVKCETHDLRVPASSEVVIEGYFAITREGVEGPFGEFAGYTPPETSLEPILSITAISWQDDPIWPVVAEGKPVDEYHTCTGIGDAAAIQNVLLTANLPVSFVWVPLYSACHLMIVSINRHWRQTHPDLTSEQLTKKVGDVIHQTRMSIKLPRIVVLDDDVDPADTESLLWALATRIHPERKRYFYESAIFPWLNCYSEEERHNRKGKRVIIDALLPENHGAISSFDYAYPDDIKQRVLMHWETDFSHD | ++++ |
| I283T-N285P-N287T-Q290E-S322T-N388M-K394R-C430A-L432F-L434W-S436N-i443aV-dG462 (protein) MFLKSLREQINLLKRQGDLRIINRPVDSYLEAAAIIRRSTETKAPVPLMTNIKGYPGCSIVGGLAALSSNPEYPLSRVAMSLGLSTTASAQSIVQYLIDGLKKTPYLPVEIDSNSAPCKQNILRGEDASLAHFPIPQVHQHDGNRYVNTWGVFIVESPDGQWCNWSIQRVQYLNDRQMIALVFPSQHISDIWEEWVKIGKPMPYALVQGCEPIVPYIAGLPLLERNVNEAEYIGALYGKGIEVVKCETHDLRVPASSEVVIEGYFAITREGVEGPFGEFAGYTPPETSLEPILSITAISWQDDPIWPVVAEGKPVDEYHTCTGIGDAAAIQNVLLTANLPVSFVWVPLYSACHLMIVSINRHWRQTHPDLTSEQLTKKVGDVIHQTRMSIKLPRIVVLDDDVDPADTESLLWALATRIHPERKRYFYESAIFPWLNCYSEEERHNRKGKRVIIDALLPENHGAISSFDYAYPDDIKQRVLMHWETDFSHD | ++++ |
